In patent US6590086:
Values joined by “and” are separate entries in the source; they are usually repeats but may differ in a detail not shown here. Equal values may be shown once.

Experiments:
[1] = target: SV40 large T antigen (SV40) (UniProt P03070); assay: in vitro phosphorylation of the large T:Rb complex, immunoprecipitation with anti-large T antibody
[2] = target: SV40 large T antigen (SV40), P03070; assay: as above; details: remark: other sources report otherwise

RB-E (from UniProt P06400 2-928)
percent of the Rb protein released from large T by phosphorylation [1]: 70%

B1: RB-H, P06400 2-928 (protein)
chain: PPKTPRKTAATAAAAAAEPPAPPPPPPPEEDPEQDSGPEDLPLVRLEFEETEEPDFTALCQKLKIPDHVRERAWLTWEKVSSVDGVLGGYIQKKKELWGICIFIAAVDLDEMSFTFTELQKNIEISVHKFFNLLKEIDTSTKVDNAMSRLLKKYDVLFALFSKLERTCELIYLTQPSSSISTEINSALVLKVSWITFLLAKGEVLQMEDDLVISFQLMLCVLDYFIKLSPPMLLKEPYKTAVIPINGSPRTPRRGQNRSARIAKQLENDTRIIEVLCKEHECNIDEVKNVYFKNFIPFMNSLGLVTSNGLPEVENLSKRYEEIYLKNKDLDARLFLDHDKTLQTDSIDSFETQRTPRKSNLDEEVNVIPPHTPVRTVMNTIQQLMMILNSASDQPSENLISYFNNCTVNPKESILKRVKDIGYIFKEKFAKAVGQGCVEIGSQRYKLGVRLYYRVMESMLKSEEERLSIQNFSKLLNDNIFHMSLLACALEVVMATYSRSTSQNLDSGTDLSFPWILNVLNLKAFDFYKVIESFIKAEGNLTREMIKHLERCEHRIMESLAWLSDSPLFDLIKQSKDREGPTDHLESACPLNLPLQNNHTAADMYLSPVRSPKKKGSTTRVNSTANAETQATSAFQTQKPLKSTSLSLFYKKVYRLAYLRLNTLCERLLSEHPELEHIIWTLFQHTLQNEYELMRDRHLDQIMMCSMYGICKVKNIDLKFKIIVTAYKDLPHAVQETFKRVLIKEEEYDSIIVFYNSVFMQRLKTNILQYASTRPPTLSPIPHIPRSPYKFPSSPLRIPGGNIYISPLKSPYKISEGLPTPTKMTPRSRILVSIGESFGTSEKFQKINQMVCNSDRVLKRSAEGSNPPKPLKKLRFDIEGSDEADGSKHLPGESKFQQKLAEMTSTRTRMQKQKMNDSMDTSNKEEK
percent of the Rb protein that remained bound after phosphorylation [2]: 20% and 30%
